# Measured values published in article PMC5700813, “A recombinant BBSome core complex and how it interacts with ciliary cargo” (eLife, 2017).
# “And” between values parts separate entries of the source, which are not always exact repeats. Identical values can stand only once.
# Test: Solubility of purified core BBSome
# Assay type: physicochemical
# Details: purified 6mer core BBSome
# Description: The 6mer core BBSome could readily be purified in milligram quantities, and is soluble up to concentrations higher than 150 µM (>50 mg/ml). A single Strep affinity purification yielded almost pure complex with no obvious imbalance in the stoichiometry of components. The complex eluted as a single entity in all subsequent purification steps (Figure 1—figure supplement 3E), and was even resistant to high salt washes of up to 2.5 M NaCl, consistent with a previous study where the native BBSome was eluted with high salt concentrations from an Arl6 affinity column ([Jin et al., 2010]). The complex elutes in gel filtration with an apparent molecular weight of ~400 kDa, in acceptable agreement with the expected theoretical mass of 336.4 kDa (Figure 1—figure supplement 3C,D), but less consistent with it being a dimer.
substance,measurement,value
"6mer core BBSome: recombinant human subcomplex composed of BBS1, 4, 5, 8, 9 and 18",soluble up to concentration,higher than 150 µM and > 50 mg/ml
